The target in this experiment is S. cerevisiae Arf1 (residues 18–181) with a C-terminal GST tag (S. cerevisiae) (UniProt P11076). The experiment in a line: pull-down.
Sequence of S. cerevisiae Arf1 (residues 18–181) with a C-terminal GST tag (S. cerevisiae) (P11076 18-181): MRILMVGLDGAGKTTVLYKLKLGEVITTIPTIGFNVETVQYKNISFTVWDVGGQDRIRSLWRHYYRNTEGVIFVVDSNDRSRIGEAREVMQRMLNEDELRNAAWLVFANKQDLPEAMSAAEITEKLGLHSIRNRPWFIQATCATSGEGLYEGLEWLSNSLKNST

Substance “γζ-COP dimer with full-length γ-COP L128E (from UniProt P53620 1-874; P35604 1-177) (complex)” gave a percent of the binding capacity of wild-type protein of 90%.

Values taken from publication PMC3285272.
